# T1: human Bfl-1 (residues 1-151) (human, UniProt Q16548 1-151)
# T1 construct: range 1-151
# T1 sequence (looked up): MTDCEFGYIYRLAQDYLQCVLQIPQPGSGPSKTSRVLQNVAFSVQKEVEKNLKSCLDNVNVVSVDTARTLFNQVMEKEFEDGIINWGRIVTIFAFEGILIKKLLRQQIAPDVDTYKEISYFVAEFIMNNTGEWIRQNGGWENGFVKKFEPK
# B1: srt.M1 (peptide)
# peptide: Ac-RSELEVVQELVRIGDIVVAYFER-NH2
# notes: synthetic solution peptide; also called vM1
# B2: srt.M9 (peptide)
# peptide: Ac-RSQYEVIQELIRIGDIVLAYFER-NH2
# notes: synthetic solution peptide; also called vM9
# Target: T1, human Bfl-1 (residues 1-151)
# Experiment: yeast surface display
row,Binder,binding result
1,GRRIDEIAQILRRIGDHIEKYI [MF01],binds
2,GRRIDEIAQILRRIGDHVEKYI [MF05],binds
3,GRWIDQIAQFLRRIGDHIEKYI (also called MF2) [MF02],binds
4,GRRVDEIAQILRRIGDNIEEYI [MF03],binds
5,GRRVDEIAQILRRIGDNINEYI [MF04],binds
6,GRRVDEIAQILRRIGDQIEEYI [MF07],binds
7,GRRVDEIAQILRRIGDNVTTYI (also called MF6) [MF06],binds

# Target: T2, human Mcl-1 (residues 172-327) (human, UniProt Q07820 172-327)
# T2 construct: range 172-327
# T2 sequence (Q07820 172-327 limits assumed): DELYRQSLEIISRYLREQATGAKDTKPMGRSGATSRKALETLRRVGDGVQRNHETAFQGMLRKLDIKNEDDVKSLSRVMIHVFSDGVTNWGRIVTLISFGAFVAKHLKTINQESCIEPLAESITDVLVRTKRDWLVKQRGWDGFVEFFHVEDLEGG
# Experiment: yeast surface display
row,Binder,binding result
1,GRRIDEIAQILRRIGDHIEKYI [MF01],binds
2,GRRIDEIAQILRRIGDHVEKYI [MF05],binds
3,GRWIDQIAQFLRRIGDHIEKYI (also called MF2) [MF02],binds
4,GRRVDEIAQILRRIGDNIEEYI [MF03],binds
5,GRRVDEIAQILRRIGDNINEYI [MF04],binds
6,GRRVDEIAQILRRIGDQIEEYI [MF07],binds
7,GRRVDEIAQILRRIGDNVTTYI (also called MF6) [MF06],binds
8,GRSQIWYDQELVRSGDVNAAYR [MX2],no binding
9,GRSQIWYVQELVRGGDVNHAYR [MX1],no binding
10,GRSQIWYDQELVRSGDENAAYR [MX3],no binding
11,GRSQIWYDQELVRYADVNAAYR [MX4],no binding
12,GRSQIWYDQELVRYGDVNAAYR [MX5],no binding
13,GRSQIWYVQELVRSGDVNHAYR [MX6],no binding
14,GRSEIWYDQELVRSGDVNAAYR [MX7],no binding

# Target: T3, human Bcl-xL (residues 1-209) (human, UniProt Q07817 1-209)
# T3 construct: range 1-209
# T3 sequence (Q07817 1-209 limits assumed): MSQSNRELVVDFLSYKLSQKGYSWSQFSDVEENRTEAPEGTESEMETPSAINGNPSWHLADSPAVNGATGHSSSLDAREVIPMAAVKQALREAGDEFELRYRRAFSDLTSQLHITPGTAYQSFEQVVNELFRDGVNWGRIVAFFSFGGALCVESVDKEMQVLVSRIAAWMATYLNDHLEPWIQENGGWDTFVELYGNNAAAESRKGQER
# Experiment: yeast surface display
row,Binder,binding result
1,GRRIDEIAQILRRIGDHIEKYI [MF01],binds
2,GRRIDEIAQILRRIGDHVEKYI [MF05],binds
3,GRWIDQIAQFLRRIGDHIEKYI (also called MF2) [MF02],binds
4,GRRVDEIAQILRRIGDNIEEYI [MF03],binds
5,GRRVDEIAQILRRIGDNINEYI [MF04],binds
6,GRRVDEIAQILRRIGDQIEEYI [MF07],binds
7,GRSQIWYDQELVRSGDVNAAYR [MX2],no binding
8,GRSQIWYVQELVRGGDVNHAYR [MX1],no binding
9,GRSQIWYDQELVRSGDENAAYR [MX3],no binding
10,GRSQIWYDQELVRYADVNAAYR [MX4],no binding
11,GRSQIWYDQELVRYGDVNAAYR [MX5],no binding
12,GRSQIWYVQELVRSGDVNHAYR [MX6],no binding
13,GRSEIWYDQELVRSGDVNAAYR [MX7],no binding

# Target: T1, human Bfl-1 (residues 1-151)
# Experiment: yeast display, sparse titration, apparent KD;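 note: designs displayed on the yeast cell surface, binding of soluble target protein measured at four concentrations spanning nanomolar to micromolar, apparent KD estimated from this sparse titration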
# Experimental: (§1) We measured binding of the designs to 1, 10, 100 or 1000 nM of Bcl-xL, Mcl-1 and Bfl-1 using yeast cell-surface display.
row,Binder,Kd [nM]
1,GQRVVQIAAGLRRTGDQLEKYG [F6],< 100
2,GRRVVHIAAGLRRTGDQLEAQG [F3],< 100
3,GQRVVHIAQGLRRTGDQLEAQG [F5],< 100
4,GQRVVQIAQGLRRTGDQLEKQG [F7],< 100
5,GRRVVQIAAGLRRTGDQLEKQG [F8],< 100
6,GQRVVQIAQGLRRAGDQLEKYG [F11],< 100
7,GRRVVQIAQGLRRAGDQLEKQG [F12],< 100
8,GRRVRHIAQGLRRAGDQLDAYG [F1],< 100
9,GQRVRHIAQGLRRTGDQLDAYG [F2],< 100
10,GRRVRHIAQGLRRAGDQLDKYG [F9],< 100

# Target: T2, human Mcl-1 (residues 172-327)
# Experiment: yeast display, sparse titration, apparent KD;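 note: designs displayed on the yeast cell surface, binding of soluble target protein measured at four concentrations spanning nanomolar to micromolar, apparent KD estimated from this sparse titration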
# Experimental: as §1
row,Binder,Kd [nM]
1,GRSELEVVQELVRIGDIVVAYF [M1],< 100
2,GRSEYEYIQELIRIGDIVDAYF [M11],< 100
3,GRSEYEYIQELVRIGDEVDAYF [M2],< 100
4,GRSELEYIQELVRIGDEVDAYF [M5],< 100
5,GRGQLEYIQELIRIGDIVDAYF [M6],< 100
6,GRSELEYIQELIRIGDNVDAYF [M7],< 100
7,GRSELEYIQELIRIGDIVDAYF [M8],< 100
8,GRSEYEYIQELIRIGDNVDAYF [M10],< 100
9,GRGQYEYIQELIRIGDIVDAYF [M12],< 100
10,GRSLYEYIQELIRIGDEVTAYF [M3],< 100
11,GRSLLEYIQELIRIGDEVIAYF [M4],< 100
12,GRSQYEVIQELIRIGDIVLAYF [M9],< 100

# Target: T3, human Bcl-xL (residues 1-209)
# Experiment: yeast display, sparse titration, apparent KD;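 note: designs displayed on the yeast cell surface, binding of soluble target protein measured at four concentrations spanning nanomolar to micromolar, apparent KD estimated from this sparse titration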
# Experimental: as §1
row,Binder,Kd [nM]
1,GQTLIWYGAQLRRYADEFAKQR [X2],< 100
2,GQTLIWYGASLRRYADEFAKQR [X1],< 100
3,GQTLIWYGAQLRRVADDFAKQR [X4],< 100
4,GQTAIWYGASLRRAADEFAKQR [X5],< 100
5,GQSMIWYGASLRRAADEFAKQR [X8],< 100
6,GQTLIWYGAQLRRYADDFAKQR [X9],< 100
7,GQRLIWYGAQLRRYADDFAKQR [X10],< 100
8,GQGLIWYGAQLRRVADDFAKQR [X12],< 100
9,GQSLIWFGASLRRGADEFAAQR [X6],< 100
10,GQPLIWFGASLRRGADEFAKQR [X3],< 100
11,GQPLIWFGAQLRRGADEFAAQR [X7],< 100
12,GQTLIWFGASLRRGADEFAAQR [X11],< 100

# Target: T1, human Bfl-1 (residues 1-151)
# Experiment: competition FP vs fluoresceinated Bim BH3, solution
# Text: (§2) We used the cell-surface experiments to select six peptides, for which we determined solution Ki values using a competition fluorescence polarization (FP) assay (FIG. 3, panel d).
row,Binder,Ki [nM]
1,Ac-QWAREIGAQLRRMADDLNAQYER-NH2 [Puma],4.8
2,Ac-QRIIWIAAELRRAADELDKQIER-NH2 (synthetic solution peptide) [srt.XF02],10
3,Ac-QRIIWIAAELRRAADQLDAQIER-NH2 (synthetic solution peptide) [srt.XF03],22
4,Ac-RRVVQIAAGLRRAGDQLEKYGER-NH2 [srt.F10],300
5,Ac-QRVVHIAAGLRRTGDQLEAYGER-NH2 [srt.F4],> 4000

# Target: T2, human Mcl-1 (residues 172-327)
# Experiment: as above
# Text: as §2
row,Binder,Ki [nM]
1,Ac-QWAREIGAQLRRMADDLNAQYER-NH2 [Puma],1.69
2,B1,2.4
3,B2,0.6

# Target: T3, human Bcl-xL (residues 1-209)
# Experiment: as above
# Text: as §2
row,Binder,Ki [nM]
1,Ac-QRIIWIAAELRRAADELDKQIER-NH2 (synthetic solution peptide) [srt.XF02],37
2,Ac-QRIIWIAAELRRAADQLDAQIER-NH2 (synthetic solution peptide) [srt.XF03],120

# — patent US20200262914A1 (MIT, published 2020)
